Article PMC6275495

Molecular target: PDGFRs (PDGFRα and PDGFRβ subunit dimers) (mouse (endogenous in MEFs)) (UniProt P26618)
Assay: affinity purification with mass spectrometry

Chain of UniProt P26618 (P26618 25-1089, chain 1 of 2): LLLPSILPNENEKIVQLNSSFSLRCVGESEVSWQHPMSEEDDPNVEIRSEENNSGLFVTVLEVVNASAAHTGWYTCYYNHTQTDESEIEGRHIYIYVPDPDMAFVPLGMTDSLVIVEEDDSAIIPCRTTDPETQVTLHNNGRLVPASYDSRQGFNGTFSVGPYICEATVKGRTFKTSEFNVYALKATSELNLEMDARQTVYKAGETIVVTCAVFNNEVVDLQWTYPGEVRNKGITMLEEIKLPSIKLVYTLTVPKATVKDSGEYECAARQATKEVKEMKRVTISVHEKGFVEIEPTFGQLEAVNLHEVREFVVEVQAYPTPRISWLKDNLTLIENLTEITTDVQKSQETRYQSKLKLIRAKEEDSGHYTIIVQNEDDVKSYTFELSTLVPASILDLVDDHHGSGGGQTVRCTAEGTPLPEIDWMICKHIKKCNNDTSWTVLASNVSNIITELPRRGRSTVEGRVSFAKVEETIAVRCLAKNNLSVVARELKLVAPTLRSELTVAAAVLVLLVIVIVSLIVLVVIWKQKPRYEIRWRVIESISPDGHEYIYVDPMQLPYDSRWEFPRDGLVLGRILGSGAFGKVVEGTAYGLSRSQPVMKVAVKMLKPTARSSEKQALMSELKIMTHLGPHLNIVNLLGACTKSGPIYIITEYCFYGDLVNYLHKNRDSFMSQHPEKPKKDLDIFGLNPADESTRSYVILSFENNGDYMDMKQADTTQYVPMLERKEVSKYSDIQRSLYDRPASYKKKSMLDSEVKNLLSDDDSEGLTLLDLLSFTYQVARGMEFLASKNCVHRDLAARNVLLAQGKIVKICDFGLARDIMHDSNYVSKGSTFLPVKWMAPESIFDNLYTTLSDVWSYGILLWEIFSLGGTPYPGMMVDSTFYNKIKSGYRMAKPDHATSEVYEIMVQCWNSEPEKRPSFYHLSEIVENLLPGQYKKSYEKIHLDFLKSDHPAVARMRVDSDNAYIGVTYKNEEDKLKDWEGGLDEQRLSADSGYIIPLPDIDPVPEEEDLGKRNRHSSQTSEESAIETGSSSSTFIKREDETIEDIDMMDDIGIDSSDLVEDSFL
Chain of UniProt P26618 (P05622 32-1098, chain 2 of 2, further chain): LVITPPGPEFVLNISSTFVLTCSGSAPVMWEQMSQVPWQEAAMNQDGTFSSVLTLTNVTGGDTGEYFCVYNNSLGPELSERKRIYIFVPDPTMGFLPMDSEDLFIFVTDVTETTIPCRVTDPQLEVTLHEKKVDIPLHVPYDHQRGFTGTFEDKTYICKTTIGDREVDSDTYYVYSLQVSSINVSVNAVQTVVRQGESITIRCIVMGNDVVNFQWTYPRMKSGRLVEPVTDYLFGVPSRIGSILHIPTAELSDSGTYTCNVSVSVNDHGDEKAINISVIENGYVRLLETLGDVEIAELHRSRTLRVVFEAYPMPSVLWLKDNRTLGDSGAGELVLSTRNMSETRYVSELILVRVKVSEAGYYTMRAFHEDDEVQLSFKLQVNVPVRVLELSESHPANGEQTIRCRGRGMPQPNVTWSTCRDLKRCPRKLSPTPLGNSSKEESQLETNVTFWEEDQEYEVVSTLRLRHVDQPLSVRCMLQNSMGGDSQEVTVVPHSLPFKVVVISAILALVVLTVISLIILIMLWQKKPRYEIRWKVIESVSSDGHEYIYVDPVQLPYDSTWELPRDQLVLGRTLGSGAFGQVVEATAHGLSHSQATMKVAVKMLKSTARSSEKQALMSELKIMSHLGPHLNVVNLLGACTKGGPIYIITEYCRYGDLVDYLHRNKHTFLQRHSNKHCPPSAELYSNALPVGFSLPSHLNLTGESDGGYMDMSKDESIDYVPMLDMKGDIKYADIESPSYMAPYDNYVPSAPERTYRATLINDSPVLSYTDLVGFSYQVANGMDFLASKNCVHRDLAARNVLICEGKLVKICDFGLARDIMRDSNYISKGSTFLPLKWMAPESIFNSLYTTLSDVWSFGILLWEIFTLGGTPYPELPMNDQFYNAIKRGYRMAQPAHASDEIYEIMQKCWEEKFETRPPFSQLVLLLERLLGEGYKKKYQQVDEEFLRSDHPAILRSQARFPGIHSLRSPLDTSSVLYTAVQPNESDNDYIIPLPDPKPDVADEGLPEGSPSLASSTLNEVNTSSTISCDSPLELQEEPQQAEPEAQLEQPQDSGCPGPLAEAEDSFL

## total p85
  percent of total associated with anti-PDGFR-IPs: > 80%
